Values joined by “and” are separate entries in the source; they are usually repeats but may differ in a detail not shown here. Equal entries are not always repeated.
Molecular target: CARD-deleted NLRC4 (mouse) (UniProt Q3UP24)
Experiment: cryo-EM structure

Substance: CARD-deleted NLRC4 (from UniProt Q3UP24 1-1024) (domain or fragment)
- blades of the disk (one of them taken to be NAIP2): 11 blades and 12 blades and 10 blades

Reference: article PMC4640189
